The assay addresses QP3732 (Her2M2-Fc). Put plainly: ELISA.

The source of these data is patent US20240043567A1 (published 2024).

B1: pertuzumab (antibody, V domains shown)
VH: EVQLVESGGGLVQPGGSLRLSCAASGFTFTDYTMDWVRQAPGKGLEWVADVNPNSGGSIYNQRFKGRFTLSVDRSKNTLYLQMNSLRAEDTAVYYCARNLGPSFYFDYWGQGTLVTVSS
VL: DIQMTQSPSSLSASVGDRVTITCKASQDVSIGVAWYQQKPGKAPKLLIYSASYRYTGVPSRFSGSGSGTDFTLTISSLQPEDFATYYCQQYYIYPYTFGQGTKVEIK
Turning to B1, the EC50 was 0.0307 µg/mL.
